Consider 15 molecules from patent publication US20230272016A1, “PEPTIDES FOR IMMUNOTHERAPY” (Second Genome, Inc., priority 2020, published 2023).

One experiment relates to human T cells. The experiment in a line: Human T cell activation assay (anti-CD3 plus peptide, cytokine secretion). In kind it is cell-based. Here is the method:
FIGS. 11 and 12 show 150 peptide variants of the SG-3-0020 1-29 aa N-terminal+middle region, derived from a combinatorial phage display library, were tested for activation potential of human T cells. […] Increase in cytokine secretion was concordant in 3 donors.
For example, PBMCs were obtained from individual human donors.
T-cell activation was also determined as described previously (see above and International Application No. PCT/US2020/012431). […] Separate N-, MID, and C-terminal fragments lose activity. The data support that both N- and middle region are minimally required for binding and activation to T cells.

For experiment [1], the target named is T1, CXCR3 (human, UniProt P49682 1-368).
T1 sequence (looked up): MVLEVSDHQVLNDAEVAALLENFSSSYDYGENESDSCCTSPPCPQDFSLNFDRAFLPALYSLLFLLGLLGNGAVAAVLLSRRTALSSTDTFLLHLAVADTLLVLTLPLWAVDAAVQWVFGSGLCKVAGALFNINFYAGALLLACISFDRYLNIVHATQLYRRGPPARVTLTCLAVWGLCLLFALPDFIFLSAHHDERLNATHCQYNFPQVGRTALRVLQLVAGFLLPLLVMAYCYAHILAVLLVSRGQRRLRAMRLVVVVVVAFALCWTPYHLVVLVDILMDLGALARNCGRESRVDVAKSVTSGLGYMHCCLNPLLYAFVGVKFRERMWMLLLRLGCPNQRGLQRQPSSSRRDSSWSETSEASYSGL
The experiment can be described thus: cell-based or functional assay.

In another experiment the target is CXCR4 (human, UniProt P61073 1-352). The experiment in a line: cell-based or functional assay.
Chain of CXCR4 (P61073 whole entry): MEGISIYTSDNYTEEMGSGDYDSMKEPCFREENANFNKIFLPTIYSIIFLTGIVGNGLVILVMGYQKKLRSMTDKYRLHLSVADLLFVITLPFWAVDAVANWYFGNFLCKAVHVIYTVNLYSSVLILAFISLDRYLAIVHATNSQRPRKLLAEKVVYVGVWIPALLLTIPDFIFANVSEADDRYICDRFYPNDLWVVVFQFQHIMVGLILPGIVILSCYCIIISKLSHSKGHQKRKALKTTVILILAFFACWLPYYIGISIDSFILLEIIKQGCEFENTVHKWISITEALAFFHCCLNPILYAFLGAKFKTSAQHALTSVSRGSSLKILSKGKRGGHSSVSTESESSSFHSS
Another experiment has as its target T2, CCR9 (human, UniProt P51686 1-369, limits assumed).
T2 sequence (looked up): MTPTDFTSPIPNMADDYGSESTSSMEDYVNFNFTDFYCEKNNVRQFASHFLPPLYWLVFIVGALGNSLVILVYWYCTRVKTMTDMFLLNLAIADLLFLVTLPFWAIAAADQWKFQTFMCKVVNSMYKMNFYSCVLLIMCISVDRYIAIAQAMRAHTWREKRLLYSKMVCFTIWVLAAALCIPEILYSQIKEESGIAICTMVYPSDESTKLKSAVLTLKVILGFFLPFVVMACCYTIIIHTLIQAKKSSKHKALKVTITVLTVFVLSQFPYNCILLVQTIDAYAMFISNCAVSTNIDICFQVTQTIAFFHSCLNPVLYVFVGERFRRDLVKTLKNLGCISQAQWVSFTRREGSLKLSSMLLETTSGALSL
The experiment in a line: cell-based or functional assay.

Another experiment deals with T3, CHRM5 (human, UniProt P08912 1-532).
T3 sequence (looked up): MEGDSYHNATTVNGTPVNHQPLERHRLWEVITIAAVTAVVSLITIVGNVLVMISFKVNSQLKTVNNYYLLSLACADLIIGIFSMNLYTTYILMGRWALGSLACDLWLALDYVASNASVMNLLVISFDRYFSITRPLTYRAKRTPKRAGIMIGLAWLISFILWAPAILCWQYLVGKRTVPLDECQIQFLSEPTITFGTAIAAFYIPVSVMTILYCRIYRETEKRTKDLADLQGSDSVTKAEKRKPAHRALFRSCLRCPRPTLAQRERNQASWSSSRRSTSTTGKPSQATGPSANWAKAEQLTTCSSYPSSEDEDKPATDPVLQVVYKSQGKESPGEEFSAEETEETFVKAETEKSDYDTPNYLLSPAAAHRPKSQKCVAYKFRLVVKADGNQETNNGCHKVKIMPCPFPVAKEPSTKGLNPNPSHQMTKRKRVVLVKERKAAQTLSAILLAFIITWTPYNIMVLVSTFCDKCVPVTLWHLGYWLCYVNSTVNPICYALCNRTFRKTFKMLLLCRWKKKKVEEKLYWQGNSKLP
The experiment can be described thus: cell-based or functional assay.

The target in a further experiment is T4, HCRTR2 (human, UniProt O43614 1-444).
T4 sequence (looked up): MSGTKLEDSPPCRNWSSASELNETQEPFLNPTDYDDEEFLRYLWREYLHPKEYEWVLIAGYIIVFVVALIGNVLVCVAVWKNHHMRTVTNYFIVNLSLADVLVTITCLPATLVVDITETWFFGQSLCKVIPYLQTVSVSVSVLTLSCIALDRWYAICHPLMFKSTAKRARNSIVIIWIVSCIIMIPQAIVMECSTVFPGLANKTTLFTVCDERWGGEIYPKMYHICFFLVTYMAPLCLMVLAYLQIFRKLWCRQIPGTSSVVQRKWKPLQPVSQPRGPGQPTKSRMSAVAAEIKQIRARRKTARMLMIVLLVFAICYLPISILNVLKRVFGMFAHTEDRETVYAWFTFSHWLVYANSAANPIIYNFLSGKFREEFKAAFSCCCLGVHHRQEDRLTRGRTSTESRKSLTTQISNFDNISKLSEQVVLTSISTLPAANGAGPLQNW
The experiment in a line: cell-based or functional assay.

Another experiment concerns the target T5, MRGPRX2 (human, UniProt Q96LB1 1-330).
T5 sequence (looked up): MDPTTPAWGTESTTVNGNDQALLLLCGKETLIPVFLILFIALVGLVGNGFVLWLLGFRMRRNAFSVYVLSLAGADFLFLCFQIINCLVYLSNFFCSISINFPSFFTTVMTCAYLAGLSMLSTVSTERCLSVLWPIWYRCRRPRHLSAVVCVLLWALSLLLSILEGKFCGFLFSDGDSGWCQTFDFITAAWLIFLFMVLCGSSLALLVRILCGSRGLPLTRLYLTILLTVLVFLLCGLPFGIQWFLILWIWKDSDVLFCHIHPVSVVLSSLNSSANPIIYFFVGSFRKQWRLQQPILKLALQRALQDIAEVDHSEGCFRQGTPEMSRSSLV
The experiment in a line: cell-based or functional assay.

Another experiment concerns the target SSTR1 (human, UniProt P30872 1-391). The experiment can be described thus: cell-based or functional assay.
The target in the next experiment is TSHR(L) (human, UniProt P16473-1 21-764, limits assumed). The experiment in a line: cell-based or functional assay.
Chain of TSHR(L) (P16473 21-764 limits assumed): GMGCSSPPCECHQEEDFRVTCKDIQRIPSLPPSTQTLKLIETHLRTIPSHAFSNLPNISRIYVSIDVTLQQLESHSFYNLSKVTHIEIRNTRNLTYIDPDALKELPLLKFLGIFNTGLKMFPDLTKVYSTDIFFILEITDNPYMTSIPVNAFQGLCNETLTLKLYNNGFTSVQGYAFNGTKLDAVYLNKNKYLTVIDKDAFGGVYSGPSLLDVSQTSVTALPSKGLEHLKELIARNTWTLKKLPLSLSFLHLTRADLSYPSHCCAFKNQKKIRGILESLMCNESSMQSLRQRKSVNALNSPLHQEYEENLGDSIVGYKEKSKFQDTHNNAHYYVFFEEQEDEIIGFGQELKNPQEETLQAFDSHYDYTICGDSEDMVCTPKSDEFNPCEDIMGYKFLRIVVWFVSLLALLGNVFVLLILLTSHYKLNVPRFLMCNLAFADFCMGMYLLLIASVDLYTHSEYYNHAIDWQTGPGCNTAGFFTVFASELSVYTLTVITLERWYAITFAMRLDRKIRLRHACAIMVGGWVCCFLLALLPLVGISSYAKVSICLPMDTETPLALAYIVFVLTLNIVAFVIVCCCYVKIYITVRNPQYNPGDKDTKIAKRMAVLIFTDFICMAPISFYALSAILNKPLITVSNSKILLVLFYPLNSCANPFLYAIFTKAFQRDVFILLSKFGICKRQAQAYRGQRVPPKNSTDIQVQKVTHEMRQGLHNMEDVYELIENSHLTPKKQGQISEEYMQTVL
Experiment [2] addresses T1, CXCR3. The experiment in a line: CXCR3 activity assay with ligand, with SG-3-00802 or SG-3-05021 added.
Where [3] appears, read: Table 10, combinatorial library variants of SEQ ID NO:1.
The mark [4] stands for this setting: Table 11, 150 combinatorial library variants of SEQ ID NO:1.

Chain of SSTR1 (P30872 whole entry): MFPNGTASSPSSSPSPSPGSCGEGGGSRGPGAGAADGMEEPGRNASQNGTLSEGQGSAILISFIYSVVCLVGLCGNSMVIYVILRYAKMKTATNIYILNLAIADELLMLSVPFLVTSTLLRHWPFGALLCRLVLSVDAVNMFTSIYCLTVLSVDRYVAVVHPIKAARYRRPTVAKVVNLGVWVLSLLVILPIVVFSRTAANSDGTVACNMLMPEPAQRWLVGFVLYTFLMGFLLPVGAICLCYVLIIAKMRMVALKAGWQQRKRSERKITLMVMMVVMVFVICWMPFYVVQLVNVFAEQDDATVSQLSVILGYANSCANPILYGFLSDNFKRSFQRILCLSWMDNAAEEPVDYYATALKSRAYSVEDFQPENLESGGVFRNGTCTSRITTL

Turning to “MSSGAKGKWHDHYPSGRMRPPPWHDWRFS [SEQ ID NO: 3]”, the mean_ES_IFN-γ in the experiment on human T cells (setting [3]) and in the experiment with human T cells (setting [4]) was 1.384 throughout.

With “MSSAAKGKTHDHNWSGRYRPPPWHDWRVR [SEQ ID NO: 242]”, the mean_ES_IFN-γ in the experiment on human T cells (setting [4]) is 0.9993.

Turning to “MLSGAKTKTHDHNPSGRMRDPPWHDWRVR [SEQ ID NO: 293]”, the mean_ES_IFN-γ with human T cells (setting [4]) was found to be 0.7047.

Consider “WPSGAKTKTHDHNWGGRMRDPPWHDWRGS [SEQ ID NO: 339]”, for which the mean_ES_IFN-γ in the experiment with human T cells (setting [4]) is reported as 0.2814.

“MPSAAKGKTHDHNGGGRMRPPPWHDWRFS [SEQ ID NO: 311]”: the mean_ES_IFN-γ in the experiment on human T cells (setting [4]) was found to be 0.5631.

Take “FVSGAKGKWHDHWPSGRWRDPPWHDWRAS [SEQ ID NO: 10]”: the mean_ES_IFN-γ in the experiment on human T cells (setting [3]) and with human T cells (setting [4]) was 1.26 in each case.

Take “WASAAKGKTHDHYGGGRMRPPPWHDWRAR [SEQ ID NO: 323]”: the mean_ES_IFN-γ in the experiment with human T cells (setting [4]) came to 0.4505.

For the molecule “VSSAAKGKTHDHYPSGRMRPPPWHDWRGR [SEQ ID NO: 283]”, the mean_ES_IFN-γ in the experiment with human T cells (setting [4]) is on record as 0.7475.

In the case of “VPSAAKGKWHDHNGSGRMRDPGWHDWRFS [SEQ ID NO: 348]”, the mean_ES_IFN-γ in the experiment on human T cells (setting [4]) was −0.009349.

Consider “PSSAAKGKTHDHYPGGRYRPPPWHDWRVS [SEQ ID NO: 264]”, for which the mean_ES_IFN-γ in the experiment with human T cells (setting [4]) came to 0.8772.

With “WASGAKGKWHDHYGGGRYRDPGWHDWRGS [SEQ ID NO: 20]”, the mean_ES_IFN-γ with human T cells (setting [3]) and in the experiment with human T cells (setting [4]) was 1.135 throughout.

In the case of “WTSAAKGKWHDHNGSGRHRDPPWHDWRAR [SEQ ID NO: 289]”, in the experiment on human T cells (setting [4]), the mean_ES_IFN-γ stood at 0.7151.

Consider “VSSGAKGKTHDHYPSGRMRPPPWHDWRFS [SEQ ID NO: 297]”, for which the mean_ES_IFN-γ with human T cells (setting [4]) is 0.6662.

B1: SG-3-00802 (peptide)
peptide: MKVRPSVKPMCEKCKIIRRKGRVMVICENPKHKQRQG
With B1, the “% Agonist Activity, PathHunter β-arrestin” value with CXCR3 [1] is -4%; with CXCR4, -14%; in the experiment with CCR9, 2%; with CHRM5, 28%; with HCRTR2, 0%; with MRGPRX2 it was 66%. For the same molecule, the “% Agonist Activity, PathHunter β-arrestin” value is -137% in the experiment with SSTR1 and 3% with TSHR(L). Besides, the “% Antagonist Activity, PathHunter β-arrestin” value with CXCR3 [1] was -32%; in the experiment with CXCR4, 99%; with CCR9, -48%; in the experiment with CHRM5, 11%; in the experiment with HCRTR2, 67%; in the experiment with MRGPRX2, -9%. Further, the “% Antagonist Activity, PathHunter β-arrestin” value in the experiment with SSTR1 came out at 61%; in the experiment with TSHR(L), 77%.

B2: CXCL11 (ligand, UniProt O14625 22-94, looked up)
chain: FPMFKRGRCLCIGPGVKAVKVADIEKASIMYPSNNCDKIEVIITLKENKGQRCLNPKSKQARLIIKKVERKNF
As for B2, the binding result with CXCR3 [2] is recorded as “binds”.
